# Measurements reported in patent EP4659810A1 (Université de Strasbourg, dated 2025).
# Residue numbers refer to the chain shown, from its start.
# B1: monoclonal antibody D10P4 (antibody, V domains shown)
# VH: EVQLLESGGGLVQPGGSLRLSCVASGFSIRGYAMNWVRQAPGKGLEWVSSLTSNGATTYYADSVKGRFTISRDNSKNTLFLQMHSLRGEDTAVYYCAKDRDAEWLGSEPFDPWGQGTLVTVSS
# VL: EIVLTQSPGTLSLSPGERATLSCRASQRVSSSYLAWYQHKFGQAPRLLIYGASRRATGIPDRFSGSGSGTDFTLTISRLEPEDFAVYYCQQYGSSPRSFGQGTKLEIK
# B2: monoclonal antibody D6P7 (antibody, V domains shown)
# VH: B1 VH with V23A, S28N, I29F, G31S, A33G, T52R, N54S, A56V, F80Y, H84N
# VL: B1 VL with R28S, V29L, S31N, F41P, Q43L, G51D, R54S, G67E, S95P
# notes: Human mAb in human-IgG (heavy, kappa) expression plasmids, made in HEK293F
# B3: monoclonal antibody E3P7 (antibody, V domains shown)
# VH: EVQLLESGGGLVQPGGSLRLSCAASGFSFRSYAMNWVRQAPGKGLEWVSSLNSAGVSTYYAESVKGRFTISRDNSKNTLYLQMNSLRGEDTAVYYCAKDRGVEWLGSEPIDPWGQGTLVTVSS
# VL: B1 VL with S32N, F41P, G51R, R54S
# B4: monoclonal antibody G5P4 (antibody, V domains shown)
# VH: B1 VH with I29L, K43R, T58A, S75F, F80Y, K98R, L118M
# VL: not shown
# notes: as for B2
# Legend:
# [1] = target: T1, VP1 on entire replicative virions of BK virus genotype Ia (Dunlop strain; ATCC VR-837) (BK virus genotype Ia (Dunlop strain), UniProt P03088 1-362); assay: cell-based or functional assay
# T1 sequence: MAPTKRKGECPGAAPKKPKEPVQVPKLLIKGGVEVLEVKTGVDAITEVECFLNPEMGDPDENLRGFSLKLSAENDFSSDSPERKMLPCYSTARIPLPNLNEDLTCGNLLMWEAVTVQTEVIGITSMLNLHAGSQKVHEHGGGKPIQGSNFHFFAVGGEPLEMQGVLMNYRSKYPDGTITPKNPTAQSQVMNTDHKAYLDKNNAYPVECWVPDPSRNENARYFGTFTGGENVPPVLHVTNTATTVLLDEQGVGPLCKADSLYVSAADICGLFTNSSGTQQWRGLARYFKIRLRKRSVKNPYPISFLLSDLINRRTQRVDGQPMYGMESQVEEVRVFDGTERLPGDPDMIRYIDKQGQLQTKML
# [2] = target: VP1 on entire replicative virions of BKV genotype II (patient's isolate) (BK virus genotype II); assay: cell-based or functional assay
# [3] = target: T2, VP1 on BKV genotype II pseudovirions (GBR-12; AB263920) (BK virus genotype II (GBR-12; AB263920), UniProt P14996 1-362); assay: cell-based or functional assay
# T2 chain: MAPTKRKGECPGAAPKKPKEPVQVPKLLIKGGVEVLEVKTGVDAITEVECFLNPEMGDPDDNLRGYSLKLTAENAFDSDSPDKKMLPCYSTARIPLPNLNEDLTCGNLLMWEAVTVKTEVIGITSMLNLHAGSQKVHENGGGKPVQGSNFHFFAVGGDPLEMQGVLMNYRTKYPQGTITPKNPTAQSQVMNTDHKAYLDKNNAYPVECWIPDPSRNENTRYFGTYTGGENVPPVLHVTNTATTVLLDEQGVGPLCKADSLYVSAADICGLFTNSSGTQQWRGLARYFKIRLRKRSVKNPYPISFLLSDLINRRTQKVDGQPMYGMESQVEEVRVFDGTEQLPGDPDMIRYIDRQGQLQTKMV
# [4] = target: T3, VP1 pentamer of BKV genotype IV (BK virus genotype IV); assay: BLI (OctetRED96e), biotinylated VP1 pentamer on streptavidin sensor, mAb 0 to 40 nM in solution
# T3 construct: Obtained by gene synthesis and subcloned into pESPRIT002; also called VP1 pentamer from genotype IV
# [5] = target: T4, VP1 on BKV genotype Ia pseudovirions (BK-D; JF894228) (BK virus genotype Ia (BK-D; JF894228), UniProt P03088 1-362); assay: cell-based or functional assay
# T4 sequence: T1 sequence
Binder,"IC50, neutralization of fully replicative BKV virions (MRC5 cells) [1]","IC50, neutralization of fully replicative BKV virions (MRC5 cells) [2]","IC50, neutralization of BKV pseudovirions (luciferase, 293TT cells) [3]",Kd [4],"IC50, neutralization of BKV pseudovirions (luciferase, 293TT cells) [5]"
B1,0.06 ng/mL,0.05 ng/mL,–,–,–
B2,–,–,0.2 ng/mL,32.1 nM,–
B3,0.03 ng/mL,0.005 ng/mL,–,–,–
B4,–,–,–,136 nM,0.2 ng/mL
